Measurements from article PMC6479807.
Each block holds one substance with its values, some of them ahead of it.

Tests used:
[1] = molecular target: PsSYM10 extracellular domain (PsSYM10-ECD) (Pisum sativum (pea))
[2] = molecular target: PsSYM10 extracellular domain (PsSYM10-ECD) (Pisum sativum (pea)); remark: listed apart in the source
[3] = molecular target: PsSYM10 extracellular domain (PsSYM10-ECD) (Pisum sativum (pea)); remark: listed apart in the source

Substance: PsK1 extracellular domain (PsK1-ECD), wild type (domain or fragment)
hypersensitive response (cell death) in N. benthamiana leaves 48–72 h after infiltration, on co-production of full-length PsSYM10-3xFLAG and PsK1-6xHIS; percent of leaves with HR [1]: 90%

hypersensitive response in N. benthamiana leaves on co-production of full-length PsSYM10 and full-length PsK1-6xHIS with P169→S; percent of leaves with HR [2]: 53%
Substance: PsK1-ECD with P169S replacement in LysM3 (as in the k1-2 mutant line) (domain or fragment)

hypersensitive response in N. benthamiana leaves on co-production of full-length PsSYM10 and full-length PsK1-6xHIS with the LysM1 replacement (k1-3); percent of leaves with HR [3]: 93%
Substance: PsK1-ECD with S59F replacement in LysM1 (as in the k1-3 mutant line) (domain or fragment)
